The source of these data is the domain aggregation screens of Martell et al. (2025).

A short description of the series: soluble fraction after stress (log2 fold change); higher = more stays soluble; pooled small domains, quantitative proteomics. Particulars: stress: 50 degC. A digest of the protocol:
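Quantitative proteomics served as the high-throughput read-out for pooled custom libraries of small protein domains. Each was stressed at 50°C. Aggregation propensity is expressed as the base-two log fold change in soluble protein after stress. A higher value means a larger share of the protein remains in solution.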
In the case of “HMKLEKKWIEAVEKYRRYVLSTGIKHVQKPIEFENFRLGQWYADVRQSYRRGTLSKEKLLEIREINPDFPN”, the “soluble fraction (log2)” value is -0.276.
For “HMKLFGTPGSPFARKVRIVLEEKRIPHEYIIERGSAPGSRVPQYNPLGKVPTLVLDDGRGLYDSPVIVEYL” the value was -0.492; for “HMKLGYTVHGNVVTVKAVANGISLYNTIGQKVAESTDGQTVKAPAHGVYILSVQGKSGSRETAKIVI”, -0.39.
Regarding “HMKLHQDLQIKVIDAANNKVEFIDTATGTSLATRTLDVNGVSKARGFEATLYGVVEDNDVFHIA”, the “soluble fraction (log2)” value is 0.158.
For “HMKLIRIPFILTEGPDSQKITIDVDGDEEFRLGDVFEEDDKLWTVNQILVSGERKAKRSMAGEVMRISALR” the value was -1.26; for “HMKLNEQSMQVIDRIVDRHRGRPGPVKLMLHDVQKELGYIPFEAMEKIAAASGVSADEVYGVVTFYTQFTT”, -0.0825; for “HMKLNETIAEARKRKGLTQEQLAQKLYVTRQAVSRWERGEVVPGIDMLKLIAITLEEPIVHLL”, -0.769.
In the case of “HMKLQIQNIEIDKKISELAEGVSAEKLPFLAKLIDRSKLLNDKGEINEDSVKAAIEEVVKAFPDFK”, the “soluble fraction (log2)” value amounted to 0.081.
For “HMKLRKINLIGIFGSKTAPSALVRLTNGRVLKVGLGELLDGGRVTAIGRSSLTYNKSGKSITLNMPI” the value was -2.73; for “HMKLRYRTQEELLGVAREYRRRGLPLSVIVIDFYHWTKFGDWKFDPAYWPDPVGMVRELRDMGVEAAV”, -0.203.
For “HMKLSKKVTDFLAQMPSKSISPKMLANNLGLADDAGDYKHLLKTIAQLEESKAIEVTAAGNIALPQPE” the value was 0.0358; for “HMKLSLKTQVKEYLLSYIRDKKLQPGDRLLTQRELAEMLHTSQKVAQMALNSLEEEGIIIRRLGSGSFLAR”, -1.11; for “HMKLTKPQEVFIQELLKGSSQYEAYLKAYPSKKTWKRNSIDTEASKLFKNAKIKQRYEELLYNIREE”, -0.167.
For “HMKLTNNDFIRLKTFMYNNYGINLENKKTLIETRLAIVVKRLGFNDFKSYIDNLMRDKTGEQASIIVGKLT” the value was -0.58; for “HMKLTPKQQQIYDFISSFADEHGYPPSVREIAQAVNLKSPATVHFHLKGLREAGYISQAEGKTRAITI”, -0.117; for “HMKMDGESQRLLSLIKEQGGSLPIGDKSSPEAIYRLTQMSKKTFKMALGSLYKAKQVVLSPTEVRL”, -0.69.
For the sequence “HMKMNFNEEEQKLLSEANVLVETNKTYTDDEVKGFSNKIVEHIMTFSKTDIPKVKSKFDPILFKI”, the “soluble fraction (log2)” value is -0.244.
For “HMKMTIEDLITQAKESNAAENYYEAFQLYSKAIDVLPNDPDLYSARGVVLFHLDRKEDSLIDMNKSVD”, the “soluble fraction (log2)” value is -0.2.
For “HMKMVEIDYGKFLTMLDTGKVKSVEIENNRIAINPSSSKDKNIYITGRMDDPELVDRLKNAKVEFTKVIP”, the “soluble fraction (log2)” value amounted to 0.261.
The result for “HMKNAYDLKMLVKDNDGNIERNMKYYFFLANGSKVEGITDDNGYTKTITTIQPEKADLHLINDELI” reads -1.1; that for “HMKNDIQLKHDVEEELQWDPAVDASRFAVQAKDGVVTLSGGVDTFADKHAAEEAIRRVAGVTALVIHVDV”, -0.107; that for “HMKNEFRVYPNPANKEIVTFNQTQDIEVYDTLGKLVLKAKNTNTLDTKSFHSGIYFIKTGSGLTRKLVV”, 0.107.
For “HMKNEQESIAQKLYEAALKNDFVTIQEIQSGGYRLRNDDLTHMRESGVQSNTLIAIQKIFGL” the value was 0.398; for “HMKNEQIFIVRPDAEGTRLDQWLAAQMASSEEAPSRMQIQRWIKAGLVEGQGTLNPARRIEAGESYTVKPG”, 0.0493; for “HMKNEYAMVIQVNGKLRGNMLVSADLEQKDIERMALDNEDIKRFISHENDVKKMIFVPKKLINIVT”, -0.351.
The result for “HMKNIFDWLKQINYHKQPADSFTEKDWELFNSYMVHRFMSMNREFIEVVNYVQEMPPQEKILIYNIYREF” reads -1.02; that for “HMKNIINFIVKEDDNNKRVDMILANHDKSLSRTRVKNLILDSKLKINERIVQDPSIKTKLNDKIELEIVEP”, 0.611.
